Data taken from patent US20210283258A1.

Molecular target: HER2 receptor (human) (UniProt P04626)
Test: cell-based or functional assay
Conditions: scale: % greater uptake compared to the non-targeted nanoparticle

cellular uptake in BT-474 cell line (CPT fluorescence of cell lysate, 30 min at 37° C.): 70
Substance: Herceptin®-PEG-nitroPBA targeted MAP-CPT nanoparticle (antibody)
